Measurements as given in PMC6482012.

Biological target: p62 (SQSTM1) (UniProt Q13501)
Assay: GST pulldown after in vitro AMPK reaction
Settings: reference: WT GST-KHK-A without AMPK; sites S80

- binding against the reference: stronger
Substance: KHK-A (fructokinase A, ketohexokinase A) (from UniProt P50053-2) WT GST-KHK-A incubated with active AMPK
